Tests used:
[1] = tested on: M401 (synthetic (M160-nuc A339E)); test: cleavage_in_vitro; details: relative to Pfu polymerase, 37 C, 4 mM MgCl2
[2] = tested on: M402 (synthetic (M160-nuc with G46D and 3'-5' exo reactivated)); test: cleavage_in_vitro; details: relative to Pfu polymerase, 37 C, 4 mM MgCl2
[3] = tested on: M160-nuc (synthetic (shuffled viral polymerase fused to Taq 5'-3' nuclease domain)); details: reference
[4] = tested on: M401 (synthetic (M160-nuc A339E)); details: vs M160-nuc
[5] = tested on: M402 (synthetic (M160-nuc with G46D and 3'-5' exo reactivated)); details: vs M160-nuc
[6] = tested on: M403 (synthetic (M160-nuc, both nucleases inactive)); details: vs M160-nuc
Chain of M403 (synthetic (M160-nuc, both nucleases inactive)) (chain, as listed by the source): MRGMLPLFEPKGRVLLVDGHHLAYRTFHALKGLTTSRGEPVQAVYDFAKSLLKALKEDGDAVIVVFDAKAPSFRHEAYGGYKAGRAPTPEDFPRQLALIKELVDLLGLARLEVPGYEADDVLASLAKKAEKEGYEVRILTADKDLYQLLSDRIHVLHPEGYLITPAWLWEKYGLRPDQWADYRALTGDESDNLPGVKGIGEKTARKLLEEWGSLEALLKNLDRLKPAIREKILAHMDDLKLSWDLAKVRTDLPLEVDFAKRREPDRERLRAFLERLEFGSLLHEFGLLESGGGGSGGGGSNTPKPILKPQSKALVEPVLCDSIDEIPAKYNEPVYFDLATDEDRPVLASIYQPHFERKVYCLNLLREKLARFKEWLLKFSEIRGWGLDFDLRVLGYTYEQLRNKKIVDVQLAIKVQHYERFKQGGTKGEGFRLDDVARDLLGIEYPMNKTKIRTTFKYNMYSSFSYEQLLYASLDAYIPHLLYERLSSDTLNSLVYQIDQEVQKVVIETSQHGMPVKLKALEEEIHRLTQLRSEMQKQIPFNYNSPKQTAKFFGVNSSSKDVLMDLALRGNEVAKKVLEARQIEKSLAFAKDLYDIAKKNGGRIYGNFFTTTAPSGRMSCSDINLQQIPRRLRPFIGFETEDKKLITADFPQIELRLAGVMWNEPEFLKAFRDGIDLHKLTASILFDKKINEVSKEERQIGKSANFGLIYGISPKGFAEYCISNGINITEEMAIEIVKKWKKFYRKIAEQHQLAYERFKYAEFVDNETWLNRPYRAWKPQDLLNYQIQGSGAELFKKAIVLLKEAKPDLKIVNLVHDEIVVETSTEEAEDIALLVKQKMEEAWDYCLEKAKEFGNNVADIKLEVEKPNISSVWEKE

[7] = tested on: M160 (synthetic (shuffled viral Family A DNA polymerase)); test: EMSA; details: 20 mM Tris pH 8.8, 10 mM NaCl, 5 mM MgCl2, 37 C; lacks 5' nuclease domain
[8] = tested on: M160-nuc (synthetic (shuffled viral polymerase fused to Taq 5'-3' nuclease domain)); test: EMSA; details: 20 mM Tris pH 8.8, 10 mM NaCl, 5 mM MgCl2, 37 C
[9] = tested on: M502 (synthetic (M160-nuc mutant W777C D781A D622N Q627N)); test: EMSA; details: 20 mM Tris pH 8.8, 10 mM NaCl, 5 mM MgCl2, 37 C; at assay sensitivity limit
Chain of M502 (synthetic (M160-nuc mutant W777C D781A D622N Q627N)) (chain, as listed by the source W777C D781A D622N Q627N): as the sequence (chain, as listed by the source) above, with D46G, D622N, Q627N, W777C, D781A counted along it

[10] = 50 C, substrate taken from general RT assay
[11] = substrate taken from general polymerase assay

Chain of M402 (synthetic (M160-nuc with G46D and 3'-5' exo reactivated)) (chain, as listed by the source G46D): as the sequence (chain, as listed by the source) above, with A339E counted along it
Chain of M401 (synthetic (M160-nuc A339E)) (chain, as listed by the source A339E): as the sequence (chain, as listed by the source) above, with D46G, A339E counted along it

**Q.** Which results are given for 59-mer single-stranded oligonucleotide?
**A.** relative enzyme activity (relative ssExo activity) [1]: 0.76; relative enzyme activity (relative ssExo activity) [2]: 0.89

**Q.** poly(A)/oligo(dT)20 was tested. Which relative enzyme activity (relative RT activity) ([3]; 50 C) did it give?
**A.** The relative enzyme activity (relative RT activity) was 1.

**Q.** What about the relative enzyme activity (relative RT activity) [4, 10] of the same substance?
**A.** Its relative enzyme activity (relative RT activity) is 1.02.

**Q.** And the relative enzyme activity (relative RT activity) [5, 10]?
**A.** The relative enzyme activity (relative RT activity) was 0.98.

**Q.** What about the relative enzyme activity (relative RT activity) [6, 10] of the same substance?
**A.** Its relative enzyme activity (relative RT activity) is 1.03.

**Q.** Which results are given for primed M13mp18 DNA?
**A.** relative enzyme activity (relative pol activity) [3, 11]: 1; relative enzyme activity (relative pol activity) [4, 11]: 0.91; relative enzyme activity (relative pol activity) [5, 11]: 1.05; relative enzyme activity (relative pol activity) [6, 11]: 0.72

**Q.** “primed-template DNA (Yamagami et al. 2014)” was tested. Which Kd [7] did it give?
**A.** Its Kd is 946 nM.

**Q.** And the Kd [8]?
**A.** Its Kd is 78.9 nM.

**Q.** What about the Kd [9] of the same substance?
**A.** The Kd was less than 6.1 nM.

— US20210171580
